Data on 6 molecules can be found in patent US20060140889A1 (L MABS B V, published 2006).

The target of assay [1] is T1, chicken lysozyme (chicken, UniProt P00698 19-147).
T1 construct: also called Egg White Lysozyme
Kind of assay: ELISA, well coated with lysozyme (100 ug/ml) and blocked with ELK, ~50 ng iMab per well, anti-VSV-HRP; urea purification. On the technique in general: ELISA stands for enzyme-linked immunosorbent assay.

The next assay has as its target T2, bovine lactoferrin (bovine, UniProt P24627 20-708).
T2 construct: also called LF
Briefly: not described at this place.

For assay [2], the target named is T1, chicken lysozyme. Briefly: ELISA on lysozyme, 100-fold dilution of the protein extract.
In assay [3] the target is T1, chicken lysozyme. Kind of assay: ELISA.

T1 sequence (P00698 19-147 limits assumed): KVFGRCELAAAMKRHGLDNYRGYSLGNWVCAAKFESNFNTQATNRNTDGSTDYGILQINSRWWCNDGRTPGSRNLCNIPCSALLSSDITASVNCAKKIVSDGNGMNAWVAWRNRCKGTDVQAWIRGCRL
T2 sequence (P24627 20-708 limits assumed): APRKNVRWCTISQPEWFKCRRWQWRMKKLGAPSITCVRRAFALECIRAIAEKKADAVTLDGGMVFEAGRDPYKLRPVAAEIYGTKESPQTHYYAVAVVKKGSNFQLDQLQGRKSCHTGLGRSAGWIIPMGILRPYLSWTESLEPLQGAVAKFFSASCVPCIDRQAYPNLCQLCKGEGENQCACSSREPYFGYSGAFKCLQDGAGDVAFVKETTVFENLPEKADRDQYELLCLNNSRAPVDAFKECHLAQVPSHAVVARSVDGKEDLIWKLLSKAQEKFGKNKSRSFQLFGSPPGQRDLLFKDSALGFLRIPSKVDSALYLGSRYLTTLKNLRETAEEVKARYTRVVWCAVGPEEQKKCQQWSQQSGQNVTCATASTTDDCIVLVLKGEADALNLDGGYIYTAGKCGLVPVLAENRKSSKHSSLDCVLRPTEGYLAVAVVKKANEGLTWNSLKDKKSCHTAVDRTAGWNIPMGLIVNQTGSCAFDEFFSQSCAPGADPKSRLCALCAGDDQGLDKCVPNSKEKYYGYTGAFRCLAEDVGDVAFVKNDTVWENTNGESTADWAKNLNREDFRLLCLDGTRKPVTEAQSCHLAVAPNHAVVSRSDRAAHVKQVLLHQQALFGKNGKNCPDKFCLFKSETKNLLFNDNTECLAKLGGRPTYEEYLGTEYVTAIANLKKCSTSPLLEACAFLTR

B1: iMab122 (designed binder)
chain: NVKLVEKGGNFVENDDDLKLTCRASGRTFSSRTMGWFRQAPNDDSTNVATIRWNGGSTYYTNYGDSVKERFDIRVDQASNTVTLSMDDLQPEDSAEYNCAGTDIGDGWSGRYDYRGQGTDVTVSS
notes: 9 beta-strand iMab; E. coli, CM126; not shown: C-terminal linker, VSV tag and 6x His tag of vector CM126
Consider B1, for which the “Absorbtion (450 nm)” value with chicken lysozyme [1] came out at 0.271 absorbance at 450 nm.

B2: iMab142-xx-0002 (designed binder, not shown: small tags and cut ends)
chain: MNVKLVEKGGNFVENDDDLKLTCRAEGYTIGPYSMGWFRQAPNDDSTNVSCINMGGGITYYGDSVKERFDIRRDNASNTVTLSMDDLQPEDSAVYNCAADWWDGFTYGSTWYNPSSYDYRGQGTDVTVSS
notes: also called iMab142-xx-002
For B2, the binding result in the assay with bovine lactoferrin is on record as “binds”.

B3: iMab148-xx-0002 (designed binder)
chain: MNVHLVERGGNFVENDDDLNLTCRAEGYTIGPYSMGWFRQAPNDDSTNVATINMGGGITYYGDSVDERFDIRRDNASNTVTLSMDDLQPEDSAVYNCAADWWDGFTYGSTWYNPSSYDYRGQGTDVTVSS
notes: Derivative of iMab142-xx-0002 in which all lysine residues were replaced; xx = C-terminal tag not specified
Take B3: the binding result in the assay with bovine lactoferrin is given as “binds”.

B4: iMab111 (designed binder)
chain: NVKLVCKGGNFVENDDDLKLTCRAEGYTIGPYCMGWFRQAPNDDSTNVATINMGGGITYYGDSVKERFDIRRDNASNTVTLSMDDLQPEDSAEYNCAGDSTIYASYYECGHGLSTGGYGYDSHYRCQGTDVTVSS
notes: iMab100 derivative with two extra cysteines in the core; E. coli, CM126
With B4, the “signal over background signal (fold)” value with chicken lysozyme [2] is approximately 20 fold. Further, the “Absorbtion (450 nm)” value with chicken lysozyme [1] stood at 0.42 absorbance at 450 nm.

B5: iMab116 (designed binder)
chain: NVKLVEKGGNFVENDDDLKLTCRAEGYTIGPYCMGWFRQAPNDDSTNVATINMGGGITYYGDSVKERFDIRRDNASNTVTLSMDDLQPEDSAEYNGAGDSTIYGSYYECGHGLSTGGYGYDSHYRGQGTDVTVSS
notes: iMab100 derivative lacking one core cysteine; E. coli, CM126; also called iMab16; not shown: C-terminal linker, VSV tag and 6x His tag of vector CM126
Regarding B5, the “Absorbtion (450 nm)” value with chicken lysozyme [1] was found to be 0.238 absorbance at 450 nm.

B6: iMab115 (designed binder)
chain: NVKLVEKGGNFVENDDDLKLTCRAEGYTIGPYCMGWFRQAPNDDSTNVATINMGGGITYYGDSVKERFDIRRDQASNTVTLSMDDLQPEDSAEYNCAGDSTIYASYYECGHGLSTGGYGYDSHYRGQGTDVTVSS
notes: iMab100 with the asparagine of the putative N-glycosylation site in AR3 changed to glutamine; expressed in E. coli as a 21 kD protein; also called iMab15
Regarding B6, the binding result with chicken lysozyme [3] is reported as “binds”.
